{"source": "patent US20070009529A1", "about": "“Agents that dissolve arterial thrombi” (New York University, priority 2002, published 2007)", "key": {"platelets [1]": {"test_system": "platelets", "assay": "Platelet oxidation/fragmentation induced independently of anti-GPIIIa49-66 (DCHF-loaded platelets)", "format": "cell-based"}, "platelets [2]": {"test_system": "platelets", "assay": "Platelet 12(S)-HETE generation", "format": "cell-based", "source_text": "Recombinant ADAMTS-18 was then made with the expression vector pBudCE4.1 in 293T cells. This peptide induced platelet 12(S)—HETE and oxidation/fragmentation in an identical kinetic fashion as anti-GPIIIa49-66 antibody. Both expressed rADAMTS-18, and HUVEC conditioned media ADAMTS-18 could be activated by thrombin (0.5μ/mL and then neutralized with hirudin), with optimum effect at one hour (n=4). HUVEC ADAMTS-18 induced oxidation fragmentation could be inhibited about 50% by an scFV antibody raised against the ADAMTS-18 (18-mer) peptide as well as GPIIIa49-66 peptide, as well as RGDS (GPIIIa ligand binding site) (n=7)."}}}
{"molecule": "Recombinant ADAMTS-18: recombinant disintegrin and metalloprotease with thrombospondin-like motifs, expressed with pBudCE4.1 in 293T cells (protein, UniProt Q8TE60 285-1221, looked up, recombinant, 293T-expressed, recombinant disintegrin and metalloprotease with thrombospondin-like motifs, expressed with pBudCE4.1 in 293T cells) A disintegrin and …: SAGKSQKGLNVETLVVADKKMVEKHGKGNVTTYILTVMNMVSGLFKDGTIGSDINVVVVSLILLEQEPGGLLINHHADQSLNSFCQWQSALIGKNGKRHDHAILLTGFDICSWKNEPCDTLGFAPISGMCSKYRSCTINEDTGLGLAFTIAHESGHNFGMIHDGEGNPCRKAEGNIMSPTLTGNNGVFSWSSCSRQYLKKFLSTPQAGCLVDEPKQAGQYKYPDKLPGQIYDADTQCKWQFGAKAKLCSLGFVKDICKSLWCHRVGHRCETKFMPAAEGTVCGLSMWCRQGQCVKFGELGPRPIHGQWSAWSKWSECSRTCGGGVKFQERHCNNPKPQYGGLFCPGSSRIYQLCNINPCNENSLDFRAQQCAEYNSKPFRGWFYQWKPYTKVEEEDRCKLYCKAENFEFFFAMSGKVKDGTPCSPNKNDVCIDGVCELVGCDHELGSKAVSDACGVCKGDNSTCKFYKGLYLNQHKANEYYPVVLIPAGARSIEIQELQVSSSYLAVRSLSQKYYLTGGWSIDWPGEFPFAGTTFEYQRSFNRPERLYAPGPTNETLVFEILMQGKNPGIAWKYALPKVMNGTPPATKRPAYTWSIVQSECSVSCGGGYINVKAICLRDQNTQVNSSFCSAKTKPVTEPKICNAFSCPAYWMPGEWSTCSKACAGGQQSRKIQCVQKKPFQKEEAVLHSLCPVSTPTQVQACNSHACPPQWSLGPWSQCSKTCGRGVRKRELLCKGSAAETLPESQCTSLPRPELQEGCVLGRCPKNSRLQWVASSWSECSATCGLGVRKREMKCSEKGFQGKLITFPERRCRNIKKPNLDLEETCNRRACPAHPVYNMVAGWYSLPWQQCTVTCGGGVQTRSVHCVQQGRPSSSCLLHQKPPVLRACNTNFCPAPEKREDPSCVDFFNWCHLVPQHGVCNHKFYGKQCCKSCTRKI", "values": [{"measurement": "platelet oxidation/fragmentation", "setting": "platelets [1]; concentration not given", "value": "induced"}, {"measurement": "time of optimum effect of activation by thrombin", "setting": "platelets [1]; thrombin 0.5μ/mL, then neutralized with hirudin, n=4", "value": "one"}, {"measurement": "platelet 12(S)-HETE", "setting": "platelets [2]", "value": "induced"}]}
